Measured values as given in patent US20100331262A1 (KAGOSHIMA UNIVERSITY, published 2010).

B1: pepB7-C15 (peptide)
peptide: CYGTKPWMC
notes: also called pepB6-C2, C5, C6, C7, C8, C9, C10, and C15; pepD1-C5, C7, and C20

Biological target: T1, B6 scFv
T1 construct: also called clone B6 of WO 2005/105998
Test: phage panning on coated scFv, clones confirmed by phage ELISA

T1 sequence (VH, as listed by the source, chain 1 of 2): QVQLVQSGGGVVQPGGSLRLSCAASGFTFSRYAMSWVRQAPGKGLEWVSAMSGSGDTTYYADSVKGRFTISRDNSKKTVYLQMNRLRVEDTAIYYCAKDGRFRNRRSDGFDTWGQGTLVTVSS
T1 sequence (VL, as listed by the source, chain 2 of 2): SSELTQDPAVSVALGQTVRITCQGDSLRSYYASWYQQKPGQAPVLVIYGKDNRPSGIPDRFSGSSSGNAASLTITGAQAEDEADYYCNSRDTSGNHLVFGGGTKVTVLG

Does B1 bind?
Result: binds

Biological target: T2, B7 scFv
T2 construct: also called clone B7 of WO 2005/105998
Test: as above

T2 sequence (VH, as listed by the source, chain 1 of 2): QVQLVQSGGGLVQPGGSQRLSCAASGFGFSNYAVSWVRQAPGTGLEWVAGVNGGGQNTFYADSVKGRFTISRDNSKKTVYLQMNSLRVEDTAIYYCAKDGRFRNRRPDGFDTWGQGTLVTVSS
T2 sequence (VL, as listed by the source, chain 2 of 2): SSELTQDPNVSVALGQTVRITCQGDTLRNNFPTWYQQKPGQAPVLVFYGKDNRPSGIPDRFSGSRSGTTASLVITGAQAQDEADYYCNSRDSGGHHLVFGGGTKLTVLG

Does B1 bind?
Result: binds

Biological target: T3, D1 scFv
T3 construct: also called clone D1 of WO 2005/105998
Test: as above

T3 sequence (VH, as listed by the source, chain 1 of 2): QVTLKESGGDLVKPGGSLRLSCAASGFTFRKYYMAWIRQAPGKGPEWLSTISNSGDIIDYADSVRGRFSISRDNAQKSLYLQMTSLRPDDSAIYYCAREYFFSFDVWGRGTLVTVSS
T3 sequence (VL, as listed by the source, chain 2 of 2): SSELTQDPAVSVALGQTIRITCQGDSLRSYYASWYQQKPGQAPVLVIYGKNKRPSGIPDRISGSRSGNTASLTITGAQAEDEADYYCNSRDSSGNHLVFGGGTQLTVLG

Does GSPFLDLLAPAA (also called pepD1-L9; pepD1-L5, L9) [pepD1-L5] bind?
Result: binds

Does SILDILSPRLAE [pepD1-L7] bind?
Result: binds

Does SSIIDILLPPIY [pepD1-L6] bind?
Result: binds

Does CQGHLPWMC [pepD1-C3] bind?
Result: binds

Does NPLDFYAPSILP [pepD1-L20] bind?
Result: binds

Does B1 bind?
Result: binds

Does CYGTEPWMC (also called pepD1-C13; pepD1-C2, C13) [pepD1-C2] bind?
Result: binds

Does CFGHEPWMC [pepD1-C18] bind?
Result: binds

Does CFGHKPWMC [pepD1-C11] bind?
Result: binds

Does GNTLLDTLVPLI [pepD1-L13] bind?
Result: binds

Does CFGRLPWMC [pepD1-C8] bind?
Result: binds

Does CFGSLPWMC [pepD1-C10] bind?
Result: binds

Biological target: T4, Aβ oligomers or Aβ fibers formed 1.5 hours after the dissolution of Aβ1-42 (UniProt P05067 672-713)
T4 construct: domain: Aβ1-42; Aggregated conformers of Aβ1-42 after 1.5 h at 40 µM in 20 mM phosphate buffer pH 7.0; The number of copies is not defined; also called Aβ conformers (Aβ oligomers and Aβ fibers)
Test: precipitation with streptavidin-magnet beads, Western blot with anti-Aβ antibodies

T4 sequence (P05067 672-713 limits assumed): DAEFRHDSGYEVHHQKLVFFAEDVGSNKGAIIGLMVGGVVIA

Does GSGGGSCGYWRSEWGLCG (also called unrelated peptide) [unrelated control peptide (GSGGGSCGYWRSEWGLCG)] bind?
Result: no binding

Biological target: T1, B6 scFv
Test: phage panning and phage ELISA on coated scFv

Does GMLDIFAPIRHV [pepB6-L1] bind?
Result: binds

Does TSPILDVLTPPR [pepB6-L10] bind?
Result: binds
